One molecule from patent publication CN113929777A (DONGGUAN PENGZHI BIOTECHNOLOGY CO LTD, dated 2022) can be followed below.

The Kd is the equilibrium constant for the complex coming apart. A low value points to tighter binding. By koff is commonly meant the first-order rate constant of dissociation. Low readings indicate slow dissociation, high ones fast dissociation. One may read the kon as the rate constant with which the complex forms.

The target of the assay is T1, 重组肌红蛋白(自产) (UniProt P02144 2-154).
T1 construct: The ELISA names it 重组肌红蛋白 and the BLI assay names it MYO蛋白; both are treated as one molecule; also called MYO蛋白; Mb
T1 sequence (looked up): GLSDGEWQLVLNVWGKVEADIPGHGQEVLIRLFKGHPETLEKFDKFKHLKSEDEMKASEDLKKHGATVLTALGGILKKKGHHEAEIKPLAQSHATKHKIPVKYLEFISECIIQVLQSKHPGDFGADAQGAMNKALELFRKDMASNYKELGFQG
Briefly: BLI, antibody captured on AMC sensors, MYO protein in serial dilution. In general terms: BLI is a label-free optical method that tracks binding on a fibre tip over time.

B1: 实施例1的肌红蛋白单克隆抗体(WT) (antibody, mouse IgG1, kappa, V domains shown)
VH: QIQLVQSGPELKKPGETVKISCKASGYTYTEFSVHWVKQAPGKGLKWMGWINSETSEPTYGDDFKGRFAFSLETSASAAYLQINNLKNEDSATYFCARRAYYLFGPFTYWGQGTLVTVSA
VL: DIVLTQSPASLAVSLGQRATISCRASKSVDFNGDSYMNWHQQKPGQPPKLLIYAASQRESGIPARFSGSGSGTDFTLNIHPVEEEDAATYYCQHSNEEPYTFGGGTKLEIKR
notes: Recombinant antibody cloned from hybridoma 5G9 and expressed in CHO cells; Detected with goat anti-mouse IgG-HRP; also called WT抗体; 5G9 recombinant antibody
In turn, B1 displayed a dissociation constant Kd of 4.56 nM, an off-rate constant (koff) of 0.000118 s⁻¹ and a kon of 25900 M⁻¹ s⁻¹.
